Measured values taken from US20160171150A1, “Chemical Modulators of Pro-Apoptotic BAX and BCL-2 Polypeptides” (Dana-Farber Cancer Institute, Inc., priority 2008, published 2016).

Target: T1, BAX (Homo sapiens, UniProt Q07812)
T1 construct: Full-length human BAX-encoding cDNA (aa 1-192) was cloned into pTYB1 plasmid; made in house; host or cells: Escherichia coli BL21(DE3)
Assay: NMR analysis of BIM SAHB binding to BAX
Details: 1H-15N correlation spectrum, BIM SAHB titration
From the text: To investigate the initiating event for BAX activation, the interaction of BAX with the BH3 ligand BIM SAHB was studied. […] BIM SAHB binding to BAX was monitored using Nuclear Magnetic Resonance (NMR) spectroscopy. Compared to the ^1H-^15N correlation spectrum of BAX, the addition of BIM SAHB broadened and shifted select NMR cross-peaks, indicating fast exchange between the bound and unbound conformations of BAX. The overall features of the NMR spectra were quite similar except for significant changes in the loop residues between α1 and α2 upon BIM SAHB binding. […] Significant changes were also observed for the side-chain NH2 of Q28, Q32, and Q52. […]
Screening by NMR is conducted by recording ^1H-^13C filtered-1D experiments of uniformly ^13C-labeled BAX at 25-50 μM concentrations, in the absence and presence of compounds at 50-100 μM concentrations. […] The weighted average chemical shift difference is calculated as √{square root over ({(ΔH)2+(ΔN/5)2}/2)} in p.p.m. and plotted as a function of the residue number of BAX. […] NMR experiments are processed with the NMRPipe spectral analysis package and chemical shifts variations measured with NMRView software. NMR spectra are recorded, for example, at 30° C. on Bruker Avance 600 MHz equipped with a z-shielded gradient, triple resonance cryoprobe.

T1 sequence (Q07812 whole entry, the tested form may be a part): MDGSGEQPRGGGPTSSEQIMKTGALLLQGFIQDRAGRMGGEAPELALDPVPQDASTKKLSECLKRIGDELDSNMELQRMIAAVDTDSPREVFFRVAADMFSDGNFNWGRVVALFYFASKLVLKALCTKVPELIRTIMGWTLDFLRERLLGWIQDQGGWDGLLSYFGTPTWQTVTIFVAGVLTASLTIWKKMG

## BIM SAHB: hydrocarbon-stapled BIM BH3 peptide (SEQ ID NO:3), Stabilized Alpha-Helix of BCL-2 domain; direct BAX-activating compound
  binding to BAX (chemical shift perturbation mapping): revealed interactions at a discrete subset of BAX residues
